Results as given in the Human Domainome abundance scans (Beltran et al. 2025).

B1: Cell division cycle and apoptosis regulator protein 1, residues 625 to 674; numbered along this chain, Q8IX12 (parent)
chain: ISTPTHWSKLDPKTMKVNDLRKELESRALSSKGLKSQLIARLTKQLKVEE

Variants of: B1
Experiment: abundance fitness (aPCA) (normalised: wild type 0, dead -1); higher = more abundant; growth selection in yeast, the domain comes from the species named
Settings: Homo sapiens

Abundance fitness, by site and new letter:
N18: F -0.056; Q 0.085; A 0.072; R 0.079; W -0.015; P 0.072; D -0.038; M 0.06; Y -0.036
S2: D 0.064; H -0.037; V 0.06; G -0.003
S8: K -0.061; W -0.272; M -0.254; C -0.007; H -0.074
T14: H 0.135; Y -0.05; A -0.019; F -0.204; R 0.178; I 0.007
D19: M 0.031; Y -0.023; E -0.275; Q 0.033; K -0.33; A -0.015; F -0.035
S36: L -0.159; N -0.146; D -0.085
K47: G -0.128; N -0.106; R -0.083; Q -0.196; F -0.489; M -0.266; P -0.806
L38: M -0.049; G -0.603; H -0.628; C -0.477; D -0.332; A -0.534; P -0.634; E -0.423; Y -0.832
D11: Y -0.036; E 0.071; C 0.093; W -0.109; K 0.154; T 0.218; H 0.074; G -0.335
K9: S -0.166; N -0.136; Y -0.158; D -0.084; I -0.254; V -0.129; L -0.066
S31: I 0.047; F -0.101; Q 0.079; Y -0.123; N -0.095
L29: Q -0.172; N -0.552; G -0.853; W -0.746; I 0.045; Y -0.384; P -0.86; A -0.899
A40: T -0.108; L -0.095; M 0.034; Y 0.219; D -0.05; N -0.066; P -0.12
Q37: G -0.253; L -0.178; V 0.002; W -0.459; I -0.513; S -0.061
W7: K -0.142; L -0.223; I -0.258; S -0.104; V -0.157; E -0.139; D -0.197; Q -0.279
S26: Y 0.044; F 0.028; L 0.118; N 0.025
K16: L -0.061; G -0.059; M -0.24; D -0.068; A -0.227; H 0.061; R -0.173; I -0.127; Y -0.153; V -0.228; E -0.066
L34: E -0.113; C -0.075; F -0.195; Y -0.033; D -0.062
E50: W -0.173; V -0.231; N -0.332
R27: N -0.871; T -0.948; C -0.776; I -1.1; G -0.743; D -0.747; L -0.805; S -0.818
H6: F -0.037; E 0.062; Y -0.042; L 0.067; C -0.065; D 0.009; S -0.056
V48: N 0.031; G -0.154; E -0.023; R -0.02; D -0.114; Q -0.06; T -0.073; L -0.06; A -0.117
L46: S -0.676; A -0.549; H -0.827; N -0.744; F -0.471; P -0.822; R -0.554; Q -0.335; W -0.805
P12: W -0.488; M -0.141; I -0.324; K -0.875; H -0.865; Y -0.74; N -0.965; Q -0.749; R -0.89
E49: C -0.606; R -0.935; D -0.41; P -0.86
E23: C -0.677; W -0.661; G -0.904; T -0.672; P -0.805; H -0.48; V -0.924; S -0.617; D -0.916; K -1
T5: C -0.483; H -0.234; D -0.689; K -0.111; G -0.225; M -0.067; E -0.082; I -0.332; A 0.026; P -0.384
P4: C 0.139; N -0.133; Q -0.108
Q45: G -0.364; L -0.46; D -0.596; M -0.216; E -0.118; C -0.042; I -0.187; H -0.284; T -0.093; S -0.144
K13: C -0.302; N 0.081; V -0.04; W -0.474; Y -0.23; L -0.241; F -0.308
K44: Y -0.229; W -0.338; I -0.296; E -0.151; L -0.289; V -0.31; A -0.161; C -0.366
A28: V -0.016; S 0.138; T 0.085; R 0.151
M15: W -0.899; S -0.75; A -0.543; Y -0.926; Q -0.679; F -1.02; P -0.83; K -0.668
L24: W -1.11; P -0.778; T -0.77; C -0.393; S -0.806; K -0.879; M -0.678
K35: L -0.243; S -0.288; Q -0.299; D -0.212; W -0.482; C -0.355; A -0.341
I1: E -0.314; K -0.257; T -0.145; M -0.123; R -0.458; D -0.641; Y -0.206; F 0.207
S30: D 0.016; I -0.185; T -0.034; Q -0.148; C 0.069; V -0.047; Y -0.141; M -0.067
T3: G -0.096; W -0.252; L -0.037; D -0.136; K 0.042; E -0.007
V17: W -0.092; D -0.114; Y -0.054; K 0.022; Q -0.082
E25: K 0.002; R -0.154; Y -0.799; V -0.155; S -0.539; D -0.581; W -0.304; P -1.02; T -0.18
L10: R -0.593; K -0.538; Y -0.709
I39: Q -0.102; F -0.518; D -0.266; L -0.183; M -0.1
R41: Q -0.466; I -0.416; F -0.814; P -0.728; W -0.877
K22: G -0.233; A -0.148; E -0.242
L42: S -0.563; A -0.662; Q -0.505; V -0.634; D -0.493; I -0.231; N -0.515; C -0.795; H -0.509; W -0.929
T43: M -0.094; H -0.105; N -0.021; L -0.043; C -0.071; W -0.202; Q -0.068; D -0.097; S -0.048; R 0.103
L20: T -0.727; W -0.833; V -0.284; I 0.136
K32: L -0.071; C -0.18; R -0.105; N -0.143; T -0.066; G -0.131
R21: T -0.155; S -0.191
G33: A -0.891; T -1.03; P -1.02; R -1.04; L -1.04; W -1.07; H -0.932; D -0.62
